Test results: a protein production outcome set (Wang et al. 2014)

Experiment: label from the status in PepcDB records

Sequence | protein production
MDGRDLVRSVKAVGSGGAAGGLRTVRAAWRRRRADASGLPRRGAERARVPGPVQGVVPGPGGGVIRFARSELRITVAVNGAVFWGWDGAGPEPSYALAGRCPEPDPRAVLEPDKDGGWQVVAERGTVMVSRHGAVEVRTPGGVTLRRDLPPRWWEPADGGAAHWMQRSEVAADARFFGLGGRAAGPRLRGGTYRLWNTDPGHAVGPGDDPLYLTMPVQLVVADAATHLVFHDTSWDGTVTLREGEEGAGSGHDRAGTSELRMDGGPLRCWVMMGTPARVLHTWASLTGAPALPPAWALGHHHARRGSGSEQEVRGVVSGYQERGLPLDAVHLDNDHYDAHQVFTVDRDRFPKLPVLAEELRRDGIRLVSVVDPAVRAEPGNAVYDAGSAQDAFVRDAAGRVVEGVVWPGESVYPDFTHARVRKWWGGLYEERLAQGFAGFWHDLNEPVSFTAFGENTLPRSARHLLEGRGGDHREAHNVYALGMARAGYEGLRELSPQERPFIFSRSGWSGMQRYGGAWSGDVTTGWPGLRASLSLVIGLGLCGVPYSGPDVGGFDGSPSPELYLRWFQLGSYLPLFRTRAGLRAGRRELWEFGEDVLEHARVALVERRRLLPYFMTLAHLARRTGAPYVRPVWWGAPEDRALRDCEDAFLLGDSLLVAPVLDPGADRRAVQLPRGRWYDTVTEKAYDGPGQVLIGAPLSRIPVLARAGAVLPVRGDGGRLELEVWRPARGRTGGGLVVPDSGDGWDEPEIEQYVTRLRGQRVVVERDGDEGPGEPSYPVRVRGLPQA | failed
MRGLSSLLLMIVLALLLYPLPHGVILIGIMTLSLLSHTLGIISLGILALYLIVFRITNIVGVAIMALGLLVVEIREMEKIRAPMEHFLYLIVAVGLSLLTYFGVYAISLAGVSLDVTLLAVLFLLLLYAFIRISVLSP | failed
MQIFETILIFLALVILSSFLHTFLPKIPLAFIQIILGMLLYVTPIPVQFNFDSELFMVALIAPLLFVEGVKVSRVHLRRYIKPVLMMALGLVVTTVIVVGLFVHWIWPELPMAAAFALAAILCPTDAVAVQAITNGKVLPKGSMTILEGESLLNDAAGIISFKIAVAALITGGFSMVNAVEQFLISSIGGFIVGLLIGVALVRFRVTLSRRGIENINMFTFIQLVTPFITYIVAEMFHASGIIAAVVAGLVHGFERDRIAQARTRLQMSYNHTWNILGYALNGFVFSILGFLIPEVVGRIIENEPHNLIFLITVTCLIALAIYLFRFLWVFVLYPYFYLPVSPFQKMISHNEDDQKTAETPPKRGMYAFIMTLCGVHGTISLAIALTLPYMLADHHSFIFRDDLLFIASGMVIISLIVAQMILPVVTPNAKKPKIVGMNFKQARVYILEKVIDSLNQQSSVTSSFQYGNVIKDYHDKLAFLRTVENEDENTKELQRLQKLAFDVENQTLNGLVENGDITTNVLDNYMRYTERTQVYKQASLLQRIKVEVRAMILKRRIRTKVKTNAASPLSVVDNLREISNIMRTVHYRVVSRLGKETTENNKLEVGMICDSYLIRIDNLTPSNFFNPKNENSITKIKLSALKEQRRILNQLVEDEEVSEVTALKIREAINYDEMIIVDSSTD | failed
QEIRPMPADSAYGVVHISVCNMRDEGKFTSGMSTQALLGMPVKVLQYTGWYEIQTPDDYTGWVHRMVITPMSKEKYDEWNRAEKIVVTSHYGFTYEKPDDDSQTVSDVVAGNRLKWEGSKGHFYKVSYPDGRQAYISRHISQPESKWRASLKQDAESIIKTAYTMIGIPYLWAGTSSKGVDCSGLVRTVLFMHDIIIPRDASQQAYVGERIEIAPDFSNVQRGDLVFFGRKATADRKEGISHVGIYLGNKRFIHALGDVHISSFDPEDECYDEFNTGRLLFATRFLPYINKEKGMNTTDHNLYYLHH | not failed
MAVRKLGVLTSGGDCPGLNAVIRAIARHAVGNYGWELWGIAYATQGLLKRQAIALSPHHFDRQSLDPLLCSGGTILGSINRGDTLAHQAEILAGYQELGLDALIGIGGDGSLAILRQLAEAGRWQFIGIPKTIDNDVALTERAIGFDTAIHTVAEALLSLGSTAASHDRIMIAEVMGRQSGHLALQGGIAGGADVILLPEIPYRLLELCHYLQQLRDRWQRRYAVIAIAEGTHHPPEVTQGPGSLGEQLVQAITAQDPTLDARVTVLGHVQRGGNPVASDRLLATQMGYAAVERLAAGASGEMMAWQGGRVVSVPLEAVCLQSPTLVDPHSPLVDTAAGLGIFLGDRSLTPWRGSACPTH | failed
MVFLIVPILTILGLSIHEAIGTSLACIAISSFSSAYTHLKKGKVHIKVVILKELFSIPAAVLGAYLTNDINEKILRVAFSMLLFYLAVRLTVKRRAKDSKEAKIHYERVPLVGVASGFLSGLLGISGGILNVPLFTIFVGIPIKYSIGTSSLALFFTALAGAITHLKEGNVVLSIALALAPGLIVGAYVGAIVSHRIHSDKLRVLFSALLLIIGVRMLV | failed
MALKYPSGKEYRGNKPNAARRPAADYANRGMTLEDDLNATNEYYRERGIAVIHKKPTPVQIVRVDYPKRSAAVITEAYFRQASTTDYNGVYRGKYIDFEAKETKNKTAFPLKNFHAHQIRHMEQVVAHGGICFAILRFSLLNETYLLDASHLIAWWNKQEAGGRKSIPKQEIERHGHSIPLGYQPRIDYISVVDNVYFTR | not failed
MAEKLLHTAESDAGIGSWVLHMESGRLEWSQAVHDIFGTDSATFDATEDAYFQRVHPDDRARVRRELDRHVLGDRPFDVEYRIVRPDGQVRELLERNHIQRQASGQVDHLWGTVIDMTEHKQ | not failed
MSIEAKFKKLGTDNAPGQEVRQSAAGLEALIRGAPIEGRPVDFSHGDVDAHEPTPGAFDLFSAGVQSGGVQAYTEYRGDLGIRDLLAPRLAAFTGAPVDARDGLIITPGTQGALFLAVAATVARGDKVAIVQPDYFANRKLVEFFEGEMVPVQLDYVSADETRAGLDLTGLEEAFKAGARVFLFSNPNNPAGVVYSAEEIGQIAALAARYGATVIADQLYSRLRYAGASYTHLRAEAAVDAENVVTIMGPSKTESLSGYRLGVAFGSRAIIARMEKLQAIVSLRAAGYSQAVLRGWFDEAPGWMEDRIARHQAIRDELLHVLRGCEGVFARTPQAGSYLFPRLPKLAVAPAEFVKILRLQAGVVVTPGTEFSPHTADSVRLNFSQDHEAAVAAARRIVTLVERYRA | not failed
MMMYKEPFGVKVDFETGIIEGAKKSVRRLSDMEGYFVDERAWKELVEKEDPVVYEVYAVEQEEKEGDLNFSTHVIYPGKVGKEFFFAKGHFHAKLDRAQVAVALKGKGGVLMQTPEGDAKWISSEPGTVIYSPPYWAARAVNIGDEPFIMLVIYPADAGHDYGTIAEKGFSKIVIEENGEVKVVDNPRWKKGSLEHHHHHH | not failed
MSIPNGGSHQSLEALLAAYDFRLRHEPRNCTLWNNRGILLERLNRWTEALASYNCALEITPQRQEALNNRAIVLEHLGRLPEAVESYEQALAIDRQQPEVWNNRGIVLRKLGRLEDAIASYQQAIALAAHYAQAWANCGFALWQQGRYREAVRHYEQSVAIDPDQSSAWRQLGQIYLSVDQPDQALRCLDQAIALQPQQATAWTWRGHALYNLGQYAAALTSYENAELLGDRPLLLSIQRGHTLAQLERYEEALASYAAILPQLTGEAAAEVAYYQGLVWAYLQDWTAALAAFDQAIAGNPDLAEAWYNRAALHARLDQPVAAIADLQQAIALDPDTYRSLAAEDPDYQTLHAHPDWIQLQRA | failed
MASLCSARFLPSPSLDILSTKTKISSDSRSLGCSSSRVFAFSSVHRSSSRRNRNQLQVVSMAPEEEKLTRRNPLDFPIEWERPKPGRRPDIFPKFSPMKTPLPPPMPYDPPEEDEEEEEKKEEEEENPDQEEEEQPEKQQ | failed
MGLASMESWIDLLEWPAMLVTVVAAWCIGSHRPGRRMVGFCCFIASNILWSVWGWHAQAWALIVLQLVLCLMNLRGWRKNKRASRKAPSEKVQGGADATPYHLLTSTSRGQPENPS | failed
MKILVDENMPYARELFSRLGEVKAVPGRPIPVEELNHADALMVRSVTKVNESLLSGTPINFVGTATAGTDHVDEAWLKQAGIGFSAAPGCNAIAVVEYVFSALLMLAERDGFSLRDRTIGIVGVGNVGSRLQTRLEALGIRTLLCDPPRAARGDEGDFRTLDELVQEADVLTFHTPLYKDGPYKTLHLADETLIRRLKPGAILINACRGPVVDNAALLARLNAGQPLSVVLDVWEGEPDLNVALLEAVDIGTSHIAGYTLEGKARGTTQVFEAYSAFIGREQRVALETLLPAPEFGRITLHGPLDQPTLKRLAHLVYDVRRDDAPLRKVAGIPGEFDKLRKNYLERREWSSLYVMCDDETAAALLCKLGFNAVHHPAH | not failed
IEIDSGSGFCFGVVNAIRHAEKQLEKSSDKLYCLGDIVHNTLEVERLGKKGLETIDYDAFSRLRGAKVLLRAHGEPPEIYRMAGENGVTIIDATCPVVLRLQNKIKSRYEATRSLGAQVVIYGKRGHAEVNGLVGQTEGTAIVIESEEELDKIDYTRPVILFSQTTKSLEGFGQIIDSISTRMQPGVTFEHHDTICRQVANRIPHIGAFATAHELVFFVAGEKSSNGKVLFGHCLAANPRSIFISSPEVIVPDMLVPLPASIGICGATSTPRWQMEEVASHIKAL | failed
MQFFGGSEISPSPPVPTASGNNAHMMYVFNRNGVCLLYKEWNRPLHTLNPQQDHKLMFGLLFSLKSLTAKMDPVNADKGNLGVPQLPGQGCSFHSFRTNTYKLSFMETPSGIKIILVTHPKTGDLRESLKYIYSLYVEYVVKNPIYSPGSPIKSELFNTALDQYVRSIS | failed
RAGHIEVAEVEGMSFPVKLDTGADVSSINAKDIKLFQKDGKDMVSFTYENDLGMQKAFTREVVDVMKITAKKGEKANVRPVVEMHVKLGELEKKIRVNLQDRGRFHYSMILGKNFLKHGALVASETNYIVTKK | not failed
MKVFDVHKFDMKKEQDFLQVQFNLKNRINLSPTIHPDSINTGAGVDLAYWEQDGEPYGVCCIIVIDADTKEVIEKVHSMGRISVPYVSGFLAFRELPLIIEAAKKLETEPDVFLFDGNGYLHYNHMGVATHAAFFLGKPTIGIAKTYLKIKGCDFVTPEIEVGAYTDIIIDGEVYGRALRTRRDVKPIFLSCGNYIDLDSSYQITMSLINQESRLPIPVRLADLETHVLRTFYQKNHVLEHHHHHH | not failed
MADTSPSACLVFQGSGFYAKLSDFRACLTGFMLPLSPSLLPTLAAAVLYAAATFYQGSRLATGAKANKRLLVTLGILALLAHAASLLTHLLTPVGLGLDFFSAASLIAAAVIALTLLACWRIPVENLLVLLFPLGALTALLAQFVPTGTVPVIDEEPGILAHILLSILAYGMFTIAVFQALLLLVQDHQLKNKHPSGLIRNFPPLQTMESLLFGFLWAGWTLLSLSLISGWLFVENLFAQHLVHKTLLACLAWVVFSVLLWGRNRLGWRGHKAIRWTLAGFCLLMLAYFGSKLVREYILHI | failed
MTGTLLSFGHGYTARVLSRALAPQGWRIIGTSRNPDQMEAIRASGAEPLLWPGEEPSLDGVTHLLISTAPDSGGDPVLAALGDQIAARAAQFRWVGYLSTTAVYGDHDGAWVDETTPLTPTAARGRWRVMAEQQWQAVPNLPLHVFRLAGIYGPGRGPFSKLGKGGIRRIIKPGQVFSRIHVEDIAQVLAASMARPDPGAVYNVCDDEPVPPQDVIAYAAELQGLPLPPAVDFDKADLTPMARSFYSENKRVRNDRIKEELGVRLKYPNYRVGLEALQADAET | not failed
MYLKELSMMPGVSGDEGKVRDFIKSKIEGLVDNLYTDVLGNLIALKRGRDSSKKLLVSAHMDEVGFVVSKIEKDGKVSFLPVGGVDPRILPGKVVQVKNLKGVIGYRPIHLQRDEENTPPRFENLRIDFGFSSADEAKKYVSIGDYVSFVSDYIEKNGRAVGKAFDDRAGCSVLIDVLESGVSPAYDTYFVFTVQEETGLRGSAVVVEQLKPTCAIVVETTTAGDNPELEERKWATHLGDGPAITFYHRGYVIPKEIFQTIVDTAKNNDIPFQMKRRTAGGTDAGRYARTAYGVPAGVISTPARYIHSPNSIIDLNDYENTKKLIKVLVEEGKIVEVVS | not failed
